# Experimental data published in paper doi:10.1101/2025.03.26.645438.
# Target: Human GLP1R protein (human) (UniProt P43220)
# Sequence (P43220 24-463): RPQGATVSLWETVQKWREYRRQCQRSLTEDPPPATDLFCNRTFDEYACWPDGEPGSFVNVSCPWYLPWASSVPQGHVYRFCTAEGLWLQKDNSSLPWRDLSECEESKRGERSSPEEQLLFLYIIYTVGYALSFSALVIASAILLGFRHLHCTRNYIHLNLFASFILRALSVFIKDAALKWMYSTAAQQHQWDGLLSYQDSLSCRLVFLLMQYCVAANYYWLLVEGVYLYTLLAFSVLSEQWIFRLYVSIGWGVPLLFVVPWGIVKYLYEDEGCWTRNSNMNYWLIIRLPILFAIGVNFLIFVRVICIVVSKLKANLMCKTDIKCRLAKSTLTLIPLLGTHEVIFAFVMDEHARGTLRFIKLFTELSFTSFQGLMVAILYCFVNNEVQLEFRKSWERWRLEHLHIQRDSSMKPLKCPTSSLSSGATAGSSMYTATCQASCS
substance,measurement,value
Semaglutide (peptide),"cAMP accumulation (HTRF) in HEK293 cells stably expressing human GLP-1R, EC50",0.019 nM
